Experimental data: publication PMC8254717, “Characterization of the DdrD protein from the extremely radioresistant bacterium Deinococcus radiodurans”

B1: oligo 1 (67-mer ssDNA) (ssDNA)
DNA: CTGTTTAAGAAATTCACCTCGAAAGCAAGCTGATAAACCGATACAATTAAAGGCTCCTTTTGGAGCC
B2: oligo 2 (67-mer dsDNA) (dsDNA)
DNA 1: CTGTTTAAGAAATTCACCTCGAAAGCAAGCTGATAAACCGATACAATTAAAGGCTCCTTTTGGAGCC
DNA 2: GGCTCCAAAAGGAGCCTTTAATTGTATCGGTTTATCAGCTTGCTTTCGAGGTGAATTTCTTAAACAG

Experiments:
DdrD [1] = molecular target: T1, DdrD (Deinococcus radiodurans R1 (ATCC 13939), UniProt Q9RXI7 1-198); experiment: EMSA; 5 mM Mg2+; DdrD up to 8 uM; not completely shifted at highest concentration; proteinase K releases DNA; EMSA: 40 mM Tris-HCl pH 7.8, 5 mM MgCl2, 1.5 mM DTT, 50 mM NaCl, 2.5% glycerol, 3.3 nM DNA, 15 min at 4 C; 6% native PAGE in 0.25X TBE with 10% glycerol; conditions: protein: recombinant; tags: none (untagged; native stop codon in reverse primer, pET21a NdeI/EcoRI); label: 5' Cy5
T1 sequence: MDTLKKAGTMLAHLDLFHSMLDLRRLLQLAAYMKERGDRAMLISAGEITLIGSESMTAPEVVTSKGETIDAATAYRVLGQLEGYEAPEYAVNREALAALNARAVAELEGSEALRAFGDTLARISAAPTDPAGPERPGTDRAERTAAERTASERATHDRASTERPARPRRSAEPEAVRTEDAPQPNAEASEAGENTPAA

DdrD [2] = molecular target: T1, DdrD; experiment: EMSA; 5 mM Mg2+; same DdrD concentrations as oligo 1; EMSA: 40 mM Tris-HCl pH 7.8, 5 mM MgCl2, 1.5 mM DTT, 50 mM NaCl, 2.5% glycerol, 3.3 nM DNA, 15 min at 4 C; 6% native PAGE in 0.25X TBE with 10% glycerol; conditions: protein: recombinant; tags: none (untagged; native stop codon in reverse primer, pET21a NdeI/EcoRI); label: 5' Cy5 on strand 1; blunt

Binder | binding result (DdrD [1]) | binding result (DdrD [2])
B1 | binds | –
B2 | – | no binding
